Assay [1] addresses T1, human FLT3 expressed on the cell surface (human, UniProt P36888 27-993).
T1 construct: FLT3 on human leukemia cell lines, on recombinant cells and on primary blood cells; also called Flk2; STK1
The assay is described as follows: FACS, biotinylated isotype control 10 ug/ml, Streptavidin-PE, REH cells (ALL).

Assay [2] deals with T1, human FLT3 expressed on the cell surface. As to the kind of experiment: FACS, biotinylated isotype control 10 ug/ml, Streptavidin-PE, EOL-1 cells (AML). (In general: In flow cytometry, cells or beads pass a laser one at a time.)
For assay [3] the target is unchanged. As to the kind of experiment: FACS, biotinylated isotype control 10 ug/ml, Streptavidin-PE, PL-21 cells (AML).
For assay [4] the target is unchanged. As to the kind of experiment: FACS, biotinylated isotype control 10 ug/ml, Streptavidin-PE, SEM cells (B-ALL).
Assay [5] shares this target. As to the kind of experiment: FACS, biotinylated isotype control 10 ug/ml, Streptavidin-PE, SKM-1 cells (AML).
For assay [6] the target is unchanged. The assay is described as follows: FACS, biotinylated isotype control 10 ug/ml, Streptavidin-PE, THP-1 cells (AML).
For assay [7] the target is unchanged. The assay is described as follows: FACS, biotinylated isotype control 10 ug/ml, Streptavidin-PE, NALM-1 cells (CML).
For assay [8] the target is unchanged. The assay is described as follows: FACS, biotinylated isotype control 10 ug/ml, Streptavidin-PE, MOLM-13 cells (AML).
Assay [9] has the same target. As to the kind of experiment: FACS, biotinylated isotype control 10 ug/ml, Streptavidin-PE, MV-4-11 cells (AML).
For assay [10] the target is unchanged. The assay is described as follows: FACS, biotinylated isotype control 10 ug/ml, Streptavidin-PE, OCI-AML2 cells (AML).
For assay [11] the target is unchanged. The assay is described as follows: FACS, biotinylated isotype control 10 ug/ml, Streptavidin-PE, RS4;11 cells (B-ALL).
Assay [12] has the same target. The assay is described as follows: FACS, biotinylated isotype control 10 ug/ml, Streptavidin-PE, MONOMAC-1 cells (AML).
Assay [13] has the same target. The assay is described as follows: FACS on MOLM-13 cells: 30 min pre-incubation with human FLT3 ligand, then biotinylated antibody, streptavidin-PE. As to the method: (§1) In another experiment, The ability of anti-FLT3 antibodies, CHv62.21 and v62-1b37.1, to bind to FLT3 expressed on the surface of human leukemia MOLM-13 cell line was evaluated in the presence of human FLT3 Ligand (hFL). Isotype control antibody, AGS91.1-pAF, was used as a negative control.
(§2) Briefly, The MOLM-13 cells were seeded at a density of 50,000 cells per well onto round-bottom 96 well plates. The plates were washed one time with 150 μl per well of PBS. The cells were Fc blocked (20 μg/mL) at a volume of 50 μl per well in FACS buffer (PBS+2% FBS+0.1% sodium azide) to reduce non-specific binding. Cells were incubated at 4° C. for 15 minutes. Human FLT3 Ligand was added to appropriate wells at 100 ng/mL and serially diluted 1:2 across the plate for a total of 11 points. Cells were incubated for 30 minutes at 4° C. prior to adding biotinylated FLT3 antibodies. After incubation, the biotinylated anti-FLT3 antibodies and isotype control antibody were prepared in FACS buffer at 10 μg/mL and 1 μg/mL and 25 μl was added to wells and incubated for 1 hour at 4° C. Cells were washed two times with FACS buffer and Streptavidin-PE (Jackson immune) was added 100 μl per well and incubated for 1 hour at 4° C. Cells were washed two times with FACS buffer and read on the Attune Cytometer (Life technologies) and analyzed in FlowJo (Tree Star) software.

The target is the same in assay [14]. As to the kind of experiment: flow cytometry, cell surface FLT3.
The target is the same in assay [15]. The assay is described as follows: FACS, biotinylated antibody 10 ug/ml, Streptavidin-PE, REH cells (ALL). As to the method: (§3) CHv62.21 was tested for binding to AML and B-ALL cell lines grown in vitro. (See, FIG. 15A-M). Briefly, CHv62.21 and an isotype matched control antibody were biotinylated using NHS LC biotin. In vitro, exponentially grown cancer cell lines were used for all experiments. Cells were harvested by and washed by centrifugation. Cells were Fc blocked to reduce non-specific binding. Antibodies were diluted to 10 ug/ml final concentration and co-incubated with cells at 4° C. for 1 hour. At the end of the incubation, cells were washed and incubated with secondary detection Streptavidin-PE antibody at a final 1:200 (2.5 ug/ml) dilution for 1 hour at 4° C. After washing un-bound secondary antibody, cells were analyzed by FACS and geometric mean fluorescence was determined and reported. Fluorescence ratio was calculated as follows: Geo mean cHv62.21/Geo mean isotype control=MFR, a measure of fold expression above isotype control.
(§4) Geometric Mean values and Mean Florescence ratios (MFR) values were obtained (Table VI) and histograms are shown (FIG. 15A-M).

Assay [16] has the same target. The assay is described as follows: FACS, biotinylated antibody 10 ug/ml, Streptavidin-PE, EOL-1 cells (AML). As to the method:
as §3, §4

The target is the same in assay [17]. The assay is described as follows: FACS, biotinylated antibody 10 ug/ml, Streptavidin-PE, PL-21 cells (AML). As for the experimental part: as §3, §4
Assay [18] shares this target. The assay is described as follows: FACS, biotinylated antibody 10 ug/ml, Streptavidin-PE, SEM cells (B-ALL). As to the method: as §3
Assay [19] shares this target. The assay is described as follows: FACS, biotinylated antibody 10 ug/ml, Streptavidin-PE, SKM-1 cells (AML). As for the experimental part: as §3, §4
Assay [20] has the same target. As to the kind of experiment: FACS, biotinylated antibody 10 ug/ml, Streptavidin-PE, THP-1 cells (AML). As to the method: as §3, §4
Assay [21] has the same target. The assay is described as follows: FACS, biotinylated antibody 10 ug/ml, Streptavidin-PE, NALM-1 cells (CML). As to the method:
as §3

Assay [22] has the same target. As to the kind of experiment: FACS, biotinylated antibody 10 ug/ml, Streptavidin-PE, MOLM-13 cells (AML). As for the experimental part:
as §3

The target is the same in assay [23]. The assay is described as follows: FACS, biotinylated antibody 10 ug/ml, Streptavidin-PE, MV-4-11 cells (AML). As for the experimental part:
as §3, §4

For assay [24] the target is unchanged. The assay is described as follows: FACS, biotinylated antibody 10 ug/ml, Streptavidin-PE, OCI-AML2 cells (AML). As for the experimental part: as §3, §4
The target is the same in assay [25]. The assay is described as follows: FACS, biotinylated antibody 10 ug/ml, Streptavidin-PE, RS4;11 cells (B-ALL). As for the experimental part:
as §3, §4

Assay [26] has the same target. As to the kind of experiment: FACS, biotinylated antibody 10 ug/ml, Streptavidin-PE, MONOMAC-1 cells (AML). As to the method:
as §3, §4

Assay [27] shares this target. The assay is described as follows: competition FACS on MOLM-13 cells: FL titrated 0.1 to 100 ng/ml, 30 min pre-incubation; displaced antibody: biotinylated cHv62-1b37.1 at 10 ug/ml. As for the experimental part:
as §1, §2

We go through five molecules from patent US20160272716A1 (AGENSYS, published 2016).

Positions count from the first letter of the chain named.

T1 sequence (P36888 27-993 T227M limits assumed): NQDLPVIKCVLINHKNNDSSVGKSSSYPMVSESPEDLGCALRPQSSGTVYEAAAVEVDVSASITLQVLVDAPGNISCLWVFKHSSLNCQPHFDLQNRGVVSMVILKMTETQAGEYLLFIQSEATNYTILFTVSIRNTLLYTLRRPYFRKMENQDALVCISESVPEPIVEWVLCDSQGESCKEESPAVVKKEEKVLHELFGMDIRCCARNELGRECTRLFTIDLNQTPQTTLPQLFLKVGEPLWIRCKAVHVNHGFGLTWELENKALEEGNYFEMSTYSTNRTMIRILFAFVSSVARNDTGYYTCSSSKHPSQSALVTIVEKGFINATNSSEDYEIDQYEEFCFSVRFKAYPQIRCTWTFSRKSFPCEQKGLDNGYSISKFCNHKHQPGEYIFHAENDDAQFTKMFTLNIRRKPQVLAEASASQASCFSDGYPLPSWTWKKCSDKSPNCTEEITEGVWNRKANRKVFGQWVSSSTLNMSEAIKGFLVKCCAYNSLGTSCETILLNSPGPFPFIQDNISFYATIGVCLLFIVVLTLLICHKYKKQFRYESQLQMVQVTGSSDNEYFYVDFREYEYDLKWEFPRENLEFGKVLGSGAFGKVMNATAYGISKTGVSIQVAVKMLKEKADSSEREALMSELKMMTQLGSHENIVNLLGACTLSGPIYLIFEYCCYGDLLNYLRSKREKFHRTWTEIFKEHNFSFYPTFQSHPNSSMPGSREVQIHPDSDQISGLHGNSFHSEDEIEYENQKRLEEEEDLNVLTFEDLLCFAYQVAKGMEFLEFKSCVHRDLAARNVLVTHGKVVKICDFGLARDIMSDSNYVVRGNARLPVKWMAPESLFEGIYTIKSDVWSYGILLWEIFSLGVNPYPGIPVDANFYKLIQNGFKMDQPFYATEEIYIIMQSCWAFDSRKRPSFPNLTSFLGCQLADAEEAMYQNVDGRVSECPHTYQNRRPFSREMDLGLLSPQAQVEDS

In the case of “isotype matched control antibody (Example 9)”, the Geometric Mean fluorescence in assay [1] stood at 235; in [2], 281; in assay [3], 570; in [4], 212; in [5] it was 445; in assay [6], 474. Moreover, the Geometric Mean fluorescence came out at 262 in assay [7]; 320 in assay [8]; 366 in assay [9]; 329 in assay [10]; 213 in [11]; 338 in [12].

B1: v62-1b37.1 (antibody, human IgG1, kappa, V domains shown)
VH: EVQLVESGGGVVRPGGSLRLSCAASGFTFDDYGMSWVRQAPGKGLEWVSGINWNGGSTGYADSVKGRFTISRDDAKNSLYLQMNSLRAEDTALYHCARDGYTYGPFDNWGQGTLVTVSS
VL: DIQMTQSPSSLSASVGDRVTITCRASQGIRNDLGWYQQKPGKAPKRLIYAASSLQSGVPSRFSGSGSGTEFTLTISSLQPEDFATYYCLQHNSYPYTFGQGTKLEIKR
modifications: biotinylated in the MOLM-13 FACS
notes: also called cHv62-1b37.1
Turning to B1, in [13], the binding result was “binds”.

B2: v62-1b21 (hybridoma MAb) (antibody, V domains shown)
VH: EVQLVESGGGLVRPGGSLRLSCAASGFTFSGYSINWVRQAPGKGLEWVSSISSSSNYIYYADSVKGRFTISRDNAKNSLYLQMNSLRAEDTAVYYCAREGFIAGTTFDAFDIWGQGTMVTVSS
VL: B1 VL with S93G, Y94F
notes: also called AGS62.21; v62.21
As to B2, in assay [14], the binding result is listed as “binds”.

B3: CHv62.21 MAb (antibody, human IgG1, kappa, V domains shown)
VH: B2 VH
VL: B1 VL with S93G, Y94F
modifications: C-terminal lysine deleted in most of the purified MAb; N-terminal pyroglutamate in a part of it; biotinylated with NHS LC biotin for the FACS of Table VI
notes: Recombinant, CHO-expressed, human IgG1 / kappa; variable regions from hybridoma v62-1b21; ATCC PTA-121831; also called cHv62-1b21.1
For B3, the “MFR (Geo mean cHv62.21/Geo mean isotype control)” value in [15] turned out to be 69 fold; in assay [16], 50 fold; in assay [17] it was 7 fold; in assay [18], 623 fold; in assay [19], 7 fold; in assay [20], 42 fold. Further, the “MFR (Geo mean cHv62.21/Geo mean isotype control)” value in assay [21] stood at 49 fold; in assay [22], 44 fold; in assay [23] it was 8 fold; in [24] it was 17 fold; in [25], 86 fold; in [26], 34 fold.

B4: human FLT3 ligand (ligand, UniProt P49771 27-185, looked up)
chain: TQDCSFQHSPISSDFAVKIRELSDYLLQDYPVTVASNLQDEELCGGLWRLVLAQRWMERLKTVAGSKMQGLLERVNTEIHFVTKCAFQPPPSCLRFVQTNISRLLQETSEQLVALKPWITRQNFSRCLELQCQPDSSTLPPPWSPRPLEATAPTAPQPP
modifications: biotinylated (Sulfo-NHS-LC-Biotin) in the Luminex assay
notes: later experiments say human FLT3 ligand; Treated as one molecule; also called hFL
As to B4, in assay [27], the “IC50 (read off the curve)” value is around 10 ng/mL.
